{"source": "patent CN109897111A", "about": "(HANGZHOU HANSI BIOLOGICAL MEDICINE CO LTD, dated 2019)", "binders": {"B1": {"name": "人源化抗体H8 (抗PD-1的IgG类抗体) (antibody, V domains shown)", "VH": "EVQLVQSGGGLVQPGGSLKLSCAASGFTFSSYGMSWVRQAPGKGLDWVATISGGGRDTYYPDSVKGRFTISRDNSKNNLYLQMNSLRAEDTALYYCARQKGEAWFAYWGQGTLVTVSA", "VL": "not shown", "notes": "HX009-5 is H8 with linker-SIRPA added to the C-terminus of the heavy chain, and both share the light chain; also called HX008"}}, "key": {"hPD-1-hIgGFc抗原 [1]": {"target": "T1, hPD-1-hIgGFc抗原 (human, UniProt Q15116 25-167, limits assumed)", "T1 sequence (Q15116 25-167 limits assumed)": "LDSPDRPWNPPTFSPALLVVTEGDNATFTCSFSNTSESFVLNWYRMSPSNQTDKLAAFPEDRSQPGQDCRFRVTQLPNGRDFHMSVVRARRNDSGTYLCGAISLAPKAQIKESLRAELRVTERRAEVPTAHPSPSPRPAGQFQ", "assay": "competition ELISA, hPD-1-hIgGFc coated, competitor PDL2-his tag 0.6 μg/ml"}, "hPD-1-his抗原": {"target": "hPD-1-his抗原 (human, UniProt Q15116 25-167, limits assumed)", "sequence (Q15116 25-167 limits assumed)": "as above", "assay": "ELISA, hPD-1-his coated 0.25 μg/ml"}, "hPD-1-hIgGFc抗原 [2]": {"target": "T1, hPD-1-hIgGFc抗原", "assay": "competition ELISA, hPD-1-hIgGFc coated, competitor PDL1-mIgG2aFc 0.6 μg/ml"}}}
{"binder": "B1", "values": [{"measurement": "IC50", "setting": "hPD-1-hIgGFc抗原 [1]", "value": 2.7, "unit": "nM"}, {"measurement": "EC50", "setting": "hPD-1-his抗原", "value": 0.05, "unit": "nM"}, {"measurement": "IC50", "setting": "hPD-1-hIgGFc抗原 [2]", "value": 1, "unit": "nM"}]}
